Test results as given in article PMC11480844 (2024).

B1: H2-Kb / Ed10 (parent complex)
chain 1: GEQVEQRPPHLSVREGDSAFIICTYTDSATAYFYWYKQEPGAGLQLLMSVFSNVDRKEEQGLTVLLNKKDKRLSLNLTAAHPGDSAVYFCAVRGTGYQNFYFGKGTSLTVIP
chain 2: AQTIHQWPVAEIKAVGSPLSLGCTIKGKSSPNLYWYWQATGGTLQQLFYSITVGQVESVVQLNLSASRPKDDQFILSTEKLLLSHSGFYLCAWSPGYEQYFGPGTRLTVL
chain 3: not shown
chain 4: IQKTPQIQVYSRHPPENGKPNILNCYVTQFHPPHIEIQMLKNGKKIPKVEMSDMSFSKDWSFYILAHTEFTPTETDTYACRVKHDSMAEPKTVYWDRDM
chain 5: SIINFEKL
B2: H2-Kb / Ed16-1 (parent complex)
chain 1: GEQVEQRPPHLSVREGDSAVITCTYTDPNSYYFFWYKQEPGASLQLLMKVFSSTEINEGQGFTVLLNKKDKRLSLNLTAAHPGDSAAYFCAVSGSNNRIFFGDGTQLVVKP
chain 2: EAAVTQSPRSKVAVTGGKVTLSCHQTNNHDYMYWYRQDTGHGLRLIHYSYVADSTEKGDIPDGYKASRPSQENFSLILELASLSQTAVYFCASRTGTDYTFGSGTRLLVI
chain 3: not shown
chain 4: B1 chain 4
chain 5: SIINFEKL

Variants of: B1
Experiment: % of reporter cells activated (NFAT-GFP), raw
Further: test concentration or dose not given here.

| ratio to parent | Variant |
| --- | --- |
| 0.581 | chain 5 F5G |
| 0.659 | chain 5 F5W |
| 0.815 | chain 5 F5R |
| 0.775 | chain 5 F5V |
| 0.758 | chain 5 F5T |
| 0.78 | chain 5 F5E |
| 0.897 | chain 5 F5D |
| 0.879 | chain 5 F5Q |
| 0.912 | chain 5 F5A |
| 0.437 | chain 5 F5P |
| 1.03 | chain 5 F5Y |
| 0.876 | chain 5 F5H |
| 0.857 | chain 5 F5C |
| 0.711 | chain 5 F5N |
| 0.958 | chain 5 F5M |
| 0.815 | chain 5 F5I |
| 0.688 | chain 5 F5K |
| 0.925 | chain 5 F5L |
| 0.764 | chain 5 F5S |
| 0.461 | chain 5 K7L |
| 0.0405 | chain 5 K7Q |
| 0.184 | chain 5 K7F |
| 0.183 | chain 5 K7H |
| 0.355 | chain 5 K7D |
| 0.726 | chain 5 K7N |

| ratio to parent | Variant |
| --- | --- |
| 0.28 | chain 5 K7M |
| 0.402 | chain 5 K7Y |
| 0.685 | chain 5 K7P |
| 0.102 | chain 5 K7T |
| 0.744 | chain 5 K7S |
| 0.563 | chain 5 K7V |
| 0.143 | chain 5 K7C |
| 0.668 | chain 5 K7R |
| 0.00697 | chain 5 K7E |
| 0.495 | chain 5 K7A |
| 0.00197 | chain 5 K7I |
| 0.601 | chain 5 K7W |
| 0.79 | chain 5 K7G |
| 0.0117 | chain 5 E6T |
| 0.0352 | chain 5 E6N |
| 0.0597 | chain 5 E6L |
| 0.384 | chain 5 E6M |
| 0.00924 | chain 5 E6W |
| 0.045 | chain 5 E6P |
| 0.557 | chain 5 E6D |
| 0.0435 | chain 5 E6R |
| 0.0734 | chain 5 E6F |
| 0.0198 | chain 5 E6A |
| 0.00689 | chain 5 E6V |
| 0.00258 | chain 5 E6I |

| ratio to parent | Variant |
| --- | --- |
| 0.377 | chain 5 E6H |
| 0.878 | chain 5 E6K |
| 0.19 | chain 5 E6Q |
| 0.00556 | chain 5 E6C |
| 0.503 | chain 5 E6Y |
| 1.02 | chain 5 S1M |
| 1 | chain 5 S1Y |
| 0.726 | chain 5 S1F |
| 0.888 | chain 5 S1E |
| 0.977 | chain 5 S1A |
| 0.938 | chain 5 S1D |
| 0.978 | chain 5 S1G |
| 0.914 | chain 5 S1L |
| 0.524 | chain 5 S1N |
| 0.913 | chain 5 S1V |
| 1.01 | chain 5 S1T |
| 0.931 | chain 5 S1Q |
| 0.814 | chain 5 S1I |
| 0.841 | chain 5 S1K |
| 0.946 | chain 5 S1P |
| 0.759 | chain 5 S1C |
| 0.72 | chain 5 S1R |
| 0.914 | chain 5 I3C |
| 0.739 | chain 5 I3W |
| 0.972 | chain 5 I3L |

| ratio to parent | Variant |
| --- | --- |
| 0.631 | chain 5 I3R |
| 0.691 | chain 5 I3D |
| 0.829 | chain 5 I3T |
| 0.873 | chain 5 I3S |
| 0.713 | chain 5 I3F |
| 0.724 | chain 5 I3G |
| 0.828 | chain 5 I3K |
| 0.927 | chain 5 I3V |
| 0.368 | chain 5 I3Y |
| 0.828 | chain 5 I3H |
| 0.933 | chain 5 I3P |
| 0.826 | chain 5 I3Q |
| 0.96 | chain 5 I3A |
| 0.913 | chain 5 I3M |
| 0.916 | chain 5 I3E |
| 0.683 | chain 5 I3N |
| 1.02 | chain 5 I2T |
| 0.841 | chain 5 I2N |
| 0.988 | chain 5 I2S |
| 0.914 | chain 5 I2Q |
| 0.973 | chain 5 I2P |
| 0.876 | chain 5 I2K |
| 0.955 | chain 5 I2L |
| 0.941 | chain 5 I2F |
| 0.751 | chain 5 I2W |

| ratio to parent | Variant |
| --- | --- |
| 0.966 | chain 5 I2E |
| 0.939 | chain 5 I2G |
| 0.933 | chain 5 I2M |
| 1.02 | chain 5 I2A |
| 0.915 | chain 5 I2H |
| 0.898 | chain 5 I2Y |
| 0.712 | chain 5 I2R |
| 0.907 | chain 5 I2C |
| 0.977 | chain 5 I2D |
| 0.962 | chain 5 I2V |
| 0.702 | chain 5 L8W |
| 0.916 | chain 5 L8H |
| 0.937 | chain 5 L8G |
| 0.885 | chain 5 L8P |
| 0.862 | chain 5 L8N |
| 0.921 | chain 5 L8C |
| 0.956 | chain 5 L8Y |
| 0.721 | chain 5 L8E |
| 0.803 | chain 5 L8D |
| 0.864 | chain 5 L8I |
| 0.81 | chain 5 L8T |
| 0.74 | chain 5 L8S |
| 0.897 | chain 5 L8Q |
| 0.88 | chain 5 L8K |
| 0.858 | chain 5 L8A |

| ratio to parent | Variant |
| --- | --- |
| 0.838 | chain 5 L8F |
| 0.721 | chain 5 L8V |
| 0.813 | chain 5 L8M |
| 0.949 | chain 5 L8R |
| 0.728 | chain 5 N4L |
| 0.33 | chain 5 N4S |
| 0.0998 | chain 5 N4F |
| 0.00517 | chain 5 N4V |
| 0.551 | chain 5 N4P |
| 0.777 | chain 5 N4H |
| 0.0807 | chain 5 N4I |
| 0.189 | chain 5 N4Q |
| 0.353 | chain 5 N4A |
| 0.13 | chain 5 N4C |
| 0.104 | chain 5 N4R |
| 0.0998 | chain 5 N4G |
| 0.424 | chain 5 N4W |
| 0.847 | chain 5 N4D |
| 0.0278 | chain 5 N4T |
| 0.127 | chain 5 N4M |
| 0.178 | chain 5 N4E |
| 0.342 | chain 5 N4K |
| 0.354 | chain 5 N4Y |

Variants of: B2
Experiment: % of reporter cells activated (NFAT-GFP), raw

| ratio to parent | Variant |
| --- | --- |
| 0.951 | chain 5 L8K |
| 0.0292 | chain 5 S1D |
